Data on 13 molecules can be found in US20230037815A1 (CULLINAN THERAPEUTICS, published 2023).

Assay [1] addresses T1, human CD19 (human, UniProt P15391 20-291, biotinylated in the Biacore assay of Table 11).
T1 construct: also called isolated CD19; Human CD19 Protein
T1 sequence (looked up): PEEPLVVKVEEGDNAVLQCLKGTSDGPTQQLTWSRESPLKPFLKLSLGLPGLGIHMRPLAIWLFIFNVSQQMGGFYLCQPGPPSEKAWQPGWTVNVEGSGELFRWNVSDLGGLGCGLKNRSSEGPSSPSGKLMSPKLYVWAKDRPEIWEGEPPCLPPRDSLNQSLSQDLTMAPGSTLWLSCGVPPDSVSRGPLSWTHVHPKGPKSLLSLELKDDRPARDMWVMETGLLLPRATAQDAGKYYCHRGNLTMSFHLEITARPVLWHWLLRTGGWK
The assay can be described thus: SPR Biacore 8K, captured biotinylated CD19, scFv analyte. How it is done: (§1) Additional kinetic analysis of the anti-CD19 VL-VH scFvs, with or without a disulfide bond introduced by Cys substitutions at position 44 of VH and position 100 of VL, was conducted by surface plasmon resonance (SPR). The scFv proteins were serially diluted and assessed at 25° C. in a HBS-EP+ running buffer system (10 mM HEPES pH 7.4, 150 mM NaCl, 3 mM EDTA, 0.05% Surfactant P20) using a Biacore 8K optical biosensor (Global Life Sciences Solutions USA, Marlborough, Mass.). The sample compartment was maintained at 10° C. for the duration of each experiment.
(§2) Each experiment cycle began with an injection (500 s at 2 μL/min) over flow cells 1 and 2 of a 1:20 solution of biotin CAPture reagent (Global Life Sciences Solutions USA) in running buffer. This was followed by an injection (300 s at 4.0 μL/min) of biotinylated CD-19 (40 nM) overflow cell 2. Upon capture of CD19 to the sensor surface, test scFvs (16.2 to 0.067 nM, 3-fold dilution in running buffer) was injected (300 s at 30 uL/min) over flow cells 1 and 2. The dissociation of the scFvs was monitored for a duration of 2564 s. Finally, an injection (90 s at 10 μL/min) of regeneration solution (6 M Guanidine-HCl in 0.25 M NaOH) overflow cells 1 and 2 was used to prepare the sensor surface for another cycle.

Assay [2] addresses T1, human CD19. Put plainly: SPR Biacore 8K, captured biotinylated CD19, scFv with disulfide bond as analyte. The procedure: as §1, §2
Background: SPR reads the build-up and loss of mass on a sensor chip optically.

The target of assay [3] is T2, human serum albumin (human, UniProt P02768 25-609).
T2 construct: also called HSA
Put plainly: Octet HTX (ForteBio), HCAb on AHC sensor, 1:1 fit. In general terms: Biolayer interferometry detects binding as a change in optical thickness at a sensor tip.

Assay [4] deals with cynomolgus serum albumin (cynomolgus, UniProt A2V9Z4 25-608). Put plainly: Octet HTX (ForteBio), HCAb on AHC sensor, 1:1 fit.
The target in assay [5] is T3, mouse serum albumin (mouse, UniProt P07724 25-608).
T3 construct: also called MSA
Put plainly: Octet HTX (ForteBio), HCAb on AHC sensor, 1:1 fit.

Assay [6] addresses protein A (UniProt P38507 37-327). Put plainly: Octet HTX (ForteBio), HCAb on AHC sensor, 1:1 fit.
Assay [7] has as its target T3, mouse serum albumin. The assay can be described thus: ratio of the Octet KD for mouse serum albumin to that for human serum albumin.
Assay [8] addresses human CD3 (human). The assay can be described thus: BLI, Octet method of WO2018208864A1.
Assay [9] concerns the target human CD3 (human). Put plainly: SPR, BiaCore method of WO2018208864A1.

T3 sequence (P07724 25-608 limits assumed): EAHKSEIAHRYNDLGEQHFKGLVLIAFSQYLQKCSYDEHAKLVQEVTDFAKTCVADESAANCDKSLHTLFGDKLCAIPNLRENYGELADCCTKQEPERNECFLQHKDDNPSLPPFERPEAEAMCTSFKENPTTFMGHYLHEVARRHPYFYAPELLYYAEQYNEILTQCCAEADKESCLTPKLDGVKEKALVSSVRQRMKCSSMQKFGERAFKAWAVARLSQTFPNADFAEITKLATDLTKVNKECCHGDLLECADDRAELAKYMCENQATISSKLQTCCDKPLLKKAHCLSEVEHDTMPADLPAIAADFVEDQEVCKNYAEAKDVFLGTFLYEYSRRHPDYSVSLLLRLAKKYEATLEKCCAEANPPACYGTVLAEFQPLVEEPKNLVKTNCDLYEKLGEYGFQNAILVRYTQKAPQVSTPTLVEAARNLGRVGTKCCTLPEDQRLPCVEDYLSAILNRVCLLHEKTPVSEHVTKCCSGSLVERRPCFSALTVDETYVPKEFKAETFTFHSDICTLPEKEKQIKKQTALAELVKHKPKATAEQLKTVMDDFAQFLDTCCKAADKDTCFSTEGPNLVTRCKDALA
cynomolgus serum albumin, sequence (A2V9Z4 25-608 limits assumed): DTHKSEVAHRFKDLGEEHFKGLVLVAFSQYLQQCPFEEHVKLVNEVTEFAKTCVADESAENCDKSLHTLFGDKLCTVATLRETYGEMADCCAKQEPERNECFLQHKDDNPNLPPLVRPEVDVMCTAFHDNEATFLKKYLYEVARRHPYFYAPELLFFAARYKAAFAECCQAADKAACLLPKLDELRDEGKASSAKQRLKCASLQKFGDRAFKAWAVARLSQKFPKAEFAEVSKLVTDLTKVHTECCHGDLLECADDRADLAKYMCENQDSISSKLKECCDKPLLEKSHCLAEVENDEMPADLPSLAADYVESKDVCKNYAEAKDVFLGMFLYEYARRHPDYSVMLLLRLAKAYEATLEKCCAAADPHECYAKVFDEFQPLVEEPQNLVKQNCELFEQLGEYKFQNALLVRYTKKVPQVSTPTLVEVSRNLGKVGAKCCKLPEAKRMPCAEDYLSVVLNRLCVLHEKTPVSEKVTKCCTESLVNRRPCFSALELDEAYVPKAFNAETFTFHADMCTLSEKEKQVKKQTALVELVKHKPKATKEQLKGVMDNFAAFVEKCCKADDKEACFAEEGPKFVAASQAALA
human CD3 (human), sequence (chain, as listed by the source): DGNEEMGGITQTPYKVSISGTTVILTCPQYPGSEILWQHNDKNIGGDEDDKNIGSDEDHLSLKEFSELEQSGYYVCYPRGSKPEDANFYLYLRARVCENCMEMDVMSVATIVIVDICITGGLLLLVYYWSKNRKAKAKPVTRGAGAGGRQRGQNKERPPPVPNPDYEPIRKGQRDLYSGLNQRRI

B1: CNG-CD19-707 VL-VH scFv (scFv)
scFv: EIVLTQSPATLSLSPGERATLSCSASSSVGYMHWYQQKPGQAPRLLIYDTSKLASGIPARFSGSGSGTDFTLTISSLEPEDFAVYYCFQGSVYPFTFGQGTKLEIKGGGGSGGGGSGGGGSQVQLQESGPGLVKPSQTLSLTCTVSGGSISTSTMGVGWIRQHPGKGLEWIGFIWWDDDKRYNPNLKSRVTMSVDTSKNQFSLKLSSVTAADTAVYYCARMELWSYYFDPWGQGTLVTVSS
A word on the Kd: it is the free concentration of one partner at which half of the binding sites on the other are occupied at equilibrium, for simple one-to-one binding. A high value points to a looser complex. A word on the koff: it is the first-order rate constant of dissociation. In assay [1], B1 came in with an equilibrium dissociation constant (Kd) of 12.2 pM and an off-rate (koff) of 2e-05 s⁻¹.

B2: CNG-CD19-707 VL-VH scFv with disulfide bond (scFv)
chain: EIVLTQSPATLSLSPGERATLSCSASSSVGYMHWYQQKPGQAPRLLIYDTSKLASGIPARFSGSGSGTDFTLTISSLEPEDFAVYYCFQGSVYPFTFGCGTKLEIKGGGGSGGGGSGGGGSQVQLQESGPGLVKPSQTLSLTCTVSGGSISTSTMGVGWIRQHPGKCLEWIGFIWWDDDKRYNPNLKSRVTMSVDTSKNQFSLKLSSVTAADTAVYYCARMELWSYYFDPWGQGTLVTVSS
Take B2: in [2], the Kd was determined as 11.7 pM and the koff came out at 2e-05 s⁻¹.

B3: CNG-CD19-701 VL-VH scFv with disulfide bond (scFv)
chain: EIVLTQSPATLSLSPGERATLSCSASSSVGYMHWYQQKPGQAPRLLIYDTSKLASGIPARFSGSGSGTDFTLTISSLEPEDFAVYYCFQGSVYPFTFGCGTKLEIKGGGGSGGGGSGGGGSQVQLQESGPGLVKPSQTLSLTCTVSGGSISTSTMGVGWIRQHPGKCLEWIGFIWWDDDKRYNPNLKSRVTMSVDTSKNQFSLKLSSVTAADTAVYYCARMELWSYYFDYWGQGTLVTVSS
In [2], B3 came in with a Kd of 14.1 pM and a koff of 2e-05 s⁻¹.

B4: CNG-CD19-710 VL-VH scFv with disulfide bond (scFv)
chain: EIVLTQSPATLSLSPGERATLSCSASSSFSYMHWYQQKPGQAPRLLIYDTSKLASGIPARFSGSGSGTDFTLTISSLEPEDFAVYYCFQGSVYPFTFGCGTKLEIKGGGGSGGGGSGGGGSQVQLQESGPGLVKPSQTLSLTCTVSGVSISTSSMGVGWIRQHPGKCLEWIGHAWWDDDKRYNPALKSRVTISVDTSKNQFSLKLSSVTAADTAVYYCARMELWSYYFDPWGQGTLVTVSS
Regarding B4, in assay [2], binding was characterised by a dissociation constant (Kd) of 21.3 pM and the koff came to 2.54e-05 s⁻¹.

B5: CNG-CD19-701 VL-VH scFv (scFv)
scFv: EIVLTQSPATLSLSPGERATLSCSASSSVGYMHWYQQKPGQAPRLLIYDTSKLASGIPARFSGSGSGTDFTLTISSLEPEDFAVYYCFQGSVYPFTFGQGTKLEIKGGGGSGGGGSGGGGSQVQLQESGPGLVKPSQTLSLTCTVSGGSISTSTMGVGWIRQHPGKGLEWIGFIWWDDDKRYNPNLKSRVTMSVDTSKNQFSLKLSSVTAADTAVYYCARMELWSYYFDYWGQGTLVTVSS
In assay [1], B5 came in with an equilibrium dissociation constant (Kd) of 14.8 pM and a koff of 2e-05 s⁻¹.

B6: CNG-CD19-710 VL-VH scFv (scFv)
scFv: EIVLTQSPATLSLSPGERATLSCSASSSFSYMHWYQQKPGQAPRLLIYDTSKLASGIPARFSGSGSGTDFTLTISSLEPEDFAVYYCFQGSVYPFTFGQGTKLEIKGGGGSGGGGSGGGGSQVQLQESGPGLVKPSQTLSLTCTVSGVSISTSSMGVGWIRQHPGKGLEWIGHAWWDDDKRYNPALKSRVTISVDTSKNQFSLKLSSVTAADTAVYYCARMELWSYYFDPWGQGTLVTVSS
In [1], B6 displayed a Kd of 21.8 pM and a koff of 2e-05 s⁻¹.

B7: CNG-HSA-116 (VHH)
VHH: KVQLVESGGGLVQPGGSLRLSCAASGFTFSSFGMSWVRQAPGKGPEWVSSISGSGSDTLYADSVKGRFTISRDNSKNTLYLQMNSLRAEDTAVYYCTIGGSLRASSQGTLVTVSS
As for B7, the Kd in assay [3] is 4650 pM; in [4], 3850 pM; in assay [5] it was 4560 pM; in assay [6], 1750 pM. Further, the dissociation rate constant (koff) was found to be 0.000699 s⁻¹ in [3], 0.000597 s⁻¹ in [4], 0.00108 s⁻¹ in assay [5] and 0.0002 s⁻¹ in assay [6]. The “Ratio of MSA-KD to HSA-KD” value in [7] turned out to be 0.98.

B8: CNG-HSA-102 (VHH)
VHH: KVQLLESGGGLVQPGGSLRLSCAASGFTFSSFGMSWVRQAPGKGLEWVSSISGSGSDTLYADSVRGRFTISRDNSKNTLYLQMNSLRPEDTAVYYCTIGGSLSPSSQGTLVTVSS
In the case of B8, the Kd in assay [3] came out at 4890 pM; in assay [4] it was 3650 pM; in assay [5] it was 41400 pM; in assay [6] it was 1700 pM. Also, the dissociation rate constant (koff) stood at 0.000748 s⁻¹ in assay [3], 0.000568 s⁻¹ in assay [4], 0.00738 s⁻¹ in [5] and 0.0002 s⁻¹ in assay [6]. Further, in assay [7], the “Ratio of MSA-KD to HSA-KD” value stood at 8.46.

B9: CNG-CD3-2 scFv construct (scFv)
scFv: DIVMTQSPDSLAVSLGERATINCKSSQSLLNARTGKNYLAWYQQKPGQPPKLLIYWASTRESGVPDRFSGSGSGTDFTLTISSLQAEDVAVYYCKQSYSRRTFGGGTKVEIKGGGGSGGGGSGGGGSGGGGSQVQLVQSGAEVKKPGASVKVSCKASGFNIKDYYMHWVRQAPGQRLEWMGWIDLENANTIYDAKFQGRVTITRDTSASTAYMELSSLRSEDTAVYYCARDQYGRYFYDVWGQGTLVTVSS
Take B9: the Kd in [8] was determined as 27000 pM; in assay [9], 16000 pM.

B10: CNG-CD19-101 VL-VH scFv (scFv)
scFv: DIVMTQTPLSLSVTPGQPASISCKSSQSLETTTGTTYLNWYLQKPGQSPQLLIYRASKRFSGVPDRFSGSGSGTDFTLKISRVEAEDVGVYYCLQLLEDPYTFGQGTKLEIKGGGGSGGGGSGGGGSQVQLVQSGAEVKKPGASVKVSCKASGYDFTDYIMHWVRQAPGQGLEWMGYINPYNDGSKYTDKFQERVTMTSDTSISTAYMELSRLRSDDTAVYYCARGTYYYGPELFDYWGQGTTVTVSS
notes: scFv without the engineered disulfide
In [1], B10 showed a Kd of 6.73 pM and a koff of 2e-05 s⁻¹.

B11: CNG-CD19-103 VL-VH scFv with disulfide bond (scFv)
chain: DIVMTQTPLSLSVTPGQPASISCKSSQSLETATGTTYLNWYLQKPGQSPQLLIYRVSRRFSGVPDRFSGSGSGTDFTLKISRVEAEDVGVYYCLQLLEDPYSFGCGTKLEIKGGGGSGGGGSGGGGSQVQLVQSGAEVKKPGASVKVSCKASGYTFTDYIMHWVRQAPGQCLEWMGYINPYNDGSKYTEKFQGRVTMTSDTSISTAYMELSRLRSDDTAVYYCARGTYYYGPQLFDYWGQGTTVTVSS
Turning to B11, in [2], the dissociation constant (Kd) came out at 17.8 pM and the koff was found to be 4.85e-05 s⁻¹.

B12: CNG-CD19-101 VL-VH scFv with disulfide bond (scFv)
scFv: DIVMTQTPLSLSVTPGQPASISCKSSQSLETTTGTTYLNWYLQKPGQSPQLLIYRASKRFSGVPDRFSGSGSGTDFTLKISRVEAEDVGVYYCLQLLEDPYTFGCGTKLEIKGGGGSGGGGSGGGGSQVQLVQSGAEVKKPGASVKVSCKASGYDFTDYIMHWVRQAPGQCLEWMGYINPYNDGSKYTDKFQERVTMTSDTSISTAYMELSRLRSDDTAVYYCARGTYYYGPELFDYWGQGTTVTVSS
notes: Cys at position 44 of VH and 100 of VL already in the entry; also called scFv with Cys substitutions
In assay [2], B12 returned a Kd of 13.9 pM and a koff of 4.88e-05 s⁻¹.

B13: CNG-CD19-103 VL-VH scFv (scFv)
scFv: DIVMTQTPLSLSVTPGQPASISCKSSQSLETATGTTYLNWYLQKPGQSPQLLIYRVSRRFSGVPDRFSGSGSGTDFTLKISRVEAEDVGVYYCLQLLEDPYSFGQGTKLEIKGGGGSGGGGSGGGGSQVQLVQSGAEVKKPGASVKVSCKASGYTFTDYIMHWVRQAPGQGLEWMGYINPYNDGSKYTEKFQGRVTMTSDTSISTAYMELSRLRSDDTAVYYCARGTYYYGPQLFDYWGQGTTVTVSS
For B13, in [1], the equilibrium dissociation constant (Kd) was found to be 9.91 pM and the koff stood at 2.41e-05 s⁻¹.
